Data on four molecules can be found in article PMC3373503, “Ca^2+ Regulates the Drosophila Stoned-A and Stoned-B Proteins Interaction with the C2B Domain of Synaptotagmin-1” (PLoS ONE, 2012).

What all share (test): pull-down; 1.5 µM GST protein as bait on glutathione resin, 0.25 µM MBP protein as prey; 2 h at 4°C; 10 mM HEPES pH 7.4, 1 mM MgCl2, 1 mg/ml BSA, 1 mM CaCl2 (Ca2+ binding buffer); eluted with glutathione, anti-MBP Western blot, densitometry
Background: A western blot detects proteins with antibodies after separation by electrophoresis.

Assay [1] concerns the target GST-C2B, C2B domain of Synaptotagmin-1 (wild type) (Drosophila) (UniProt P21521).
In assay [2] the target is GST-ΔW, C2B domain of Synaptotagmin-1 truncated immediately before the WHTL motif (Drosophila) (UniProt P21521).
For assay [3], the target named is T1, GST-C2B, C2B domain of Synaptotagmin-1 (wild type) (Drosophila, UniProt P21521 323-474).
T1 construct: Synaptotagmin-1 (SYT-1), Drosophila, C2B domain, printed as 'bases 323–474' (read as residues 323-474), from the Drosophila syt cDNA clone, in pGEX-4T-1; also called GST SYT-1 C2B domain; C2B SYT-1; source: E. coli, purified (glutathione resin, washed free of nucleic acids)
The note with it: both partners purified.

For the molecule “MBP-STNA (CCD), coiled-coil domain of Stoned-A (from UniProt Q24211 1-850) (domain or fragment)”, in assay [1], the fold binding against binding to GST-C2A worked out at 3 fold and the fold binding in Ca2+ buffer against EGTA buffer was 2.5 fold. The fold binding against binding to GST-C2B in assay [2] was > 3 fold.

In assay [2], “MBP-C2B, C2B domain of Synaptotagmin-1 (wild type) (from UniProt P21521 323-474) (domain or fragment)” registered a fold binding against binding to GST-C2B of 4 fold.

In assay [1], “MBP-STNB (MHD), µ-homology domain of Stoned-B (from UniProt Q24212 1-1262) (domain or fragment)” gave a fold binding against binding to GST-C2A of 4 fold and a fold binding in Ca2+ buffer against EGTA buffer of 4 fold. The fold binding against binding to GST-C2B in assay [2] is > 5 fold.

B1: MBP-C2B, C2B domain of Synaptotagmin-1 (wild type) (domain or fragment, Drosophila, UniProt P21521 323-474, looked up)
chain: QEKLGDICFSLRYVPTAGKLTVVILEAKNLKKMDVGGLSDPYVKIAIMQNGKRLKKKKTSIKKCTLNPYYNESFSFEVPFEQIQKICLVVTVVDYDRIGTSEPIGRCILGCMGTGTELRHWSDMLASPRRPIAQWHTLKDPEETDEILKNMK
notes: Synaptotagmin-1 (SYT-1), Drosophila, C2B domain; 'the DNA encoding the C2B domain was also inserted into pMAL-c2X'; also called full length MBP-C2B; wild-type MBP-C2B; source: E. coli, purified (amylose resin, washed free of nucleic acids)
Regarding B1, the binding result in assay [3] is “binds”.
